Target: T1, IsdA (iron-regulated surface determinant protein A) (Staphylococcus aureus, UniProt A6QG31 47-316)
T1 sequence: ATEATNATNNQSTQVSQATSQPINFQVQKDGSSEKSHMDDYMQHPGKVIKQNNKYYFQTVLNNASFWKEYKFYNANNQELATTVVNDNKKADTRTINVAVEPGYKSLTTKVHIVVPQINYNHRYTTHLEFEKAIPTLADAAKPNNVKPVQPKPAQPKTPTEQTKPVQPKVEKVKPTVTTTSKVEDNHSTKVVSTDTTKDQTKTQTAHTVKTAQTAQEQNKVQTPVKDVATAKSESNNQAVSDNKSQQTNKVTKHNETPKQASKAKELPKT
Experiment: cyclic voltammetry and EIS; pH 7.5, 25 °C, 5 mM [Fe(CN)6]3-/4-, 0.1 M KCl; Aptamer (5 µM, 4 h) immobilized on SPCE/AuNPs, 2-MCE block; CV in 5 mM [Fe(CN)6]3-/4-, 0.1 M KCl, pH 7.5 (also 4.5, 10.5), 25 °C (also 4, 37 °C); zeta potential in water, room temperature
Conditions: label: FAM dye applied in imaging; 1 strand

## GCGCACGCGUGUGUAGUACACACGAUCGCGCGCACAAUAU (ssRNA, amine for coupling to AuNP carboxyl groups implied; position not stated) [anti-IsdA aptamer]
  binding result: binds

From article PMC11857385, “Parametric Cyclic Voltammetric Analysis of an Electrochemical Aptasensor for Staphylococcus aureus Iron-Regulated Surface Determinant Protein A Detection”
